Test results as given in publication PMC12379891.

Molecular target: AeCRK^G359E (kinase-dead cysteine-rich receptor-like kinase of Aeschynomene evenia), mCherry-tagged and YFP-tagged copies (Aeschynomene evenia)
Experiment: co-IP

Substance	fold enrichment in the co-IP over the negative control MtLYK3-CFP [fold]
AeRLCK2-YFP (receptor-like cytoplasmic kinase 2 of Aeschynomene evenia) (natural protein)	2.9
AeCRK^G359E (kinase-dead cysteine-rich receptor-like kinase of Aeschynomene evenia), mCherry-tagged and YFP-tagged copies	7.37
